Assay [1] addresses chemokine receptors on THP-1 cells. In words: cell-based or functional assay.
The target in assay [2] is T1, Duffy Antigen Receptor for Chemokines (DARC) (human) (UniProt Q16570).
T1 sequence (looked up): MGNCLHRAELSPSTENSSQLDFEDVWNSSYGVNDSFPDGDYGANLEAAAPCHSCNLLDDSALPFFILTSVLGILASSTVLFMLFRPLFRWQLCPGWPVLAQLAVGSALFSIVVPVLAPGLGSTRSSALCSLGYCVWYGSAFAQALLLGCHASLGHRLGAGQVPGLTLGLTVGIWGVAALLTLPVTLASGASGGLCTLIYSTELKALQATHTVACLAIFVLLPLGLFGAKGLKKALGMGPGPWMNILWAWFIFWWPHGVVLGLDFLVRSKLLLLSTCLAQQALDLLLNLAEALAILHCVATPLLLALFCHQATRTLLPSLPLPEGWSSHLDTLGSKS
In words: estimated ka for binding to red blood cells divided by average inhibitory ED50 (THP-1 migration).

The target of assay [3] is T2, Duffy Antigen Receptor for Chemokines (DARC) (human, UniProt Q16570 1-336).
T2 construct: whole, on cells
T2 sequence (looked up): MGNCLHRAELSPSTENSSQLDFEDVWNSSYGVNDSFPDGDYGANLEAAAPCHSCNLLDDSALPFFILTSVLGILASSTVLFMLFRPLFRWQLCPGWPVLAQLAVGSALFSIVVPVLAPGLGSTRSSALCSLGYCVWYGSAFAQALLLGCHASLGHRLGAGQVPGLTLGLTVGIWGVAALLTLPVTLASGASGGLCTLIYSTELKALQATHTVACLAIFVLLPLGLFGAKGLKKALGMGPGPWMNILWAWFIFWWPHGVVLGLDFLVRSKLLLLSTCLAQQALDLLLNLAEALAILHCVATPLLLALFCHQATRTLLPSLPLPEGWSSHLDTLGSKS
Described as above. How it is done:
Counts associated with the cells are then determined by gamma-counting scintigraphy. […] Furthermore, Scatchard analysis confirms the presence of a single high affinity binding site with 500–1000 copies per cell, consistent with the known properties of DARC.
The DARC specificity ratio is also determined. The DARC specificity ratio is defined as the estimated ka for association with DARC divided by the $ED50$ for biological activity. […] Thus, it may be difficult to achieve biologically active (as a chemokine inhibitor) concentrations of these peptides in vivo without further modifications of the peptide.
Footnotes [a]'CC-specificity' is the average inhibitory ED$50$ versus SDF1 and IL8 divided by average inhibitory ED$50$ versus MCP-1 and MIP1α. [b]'Duffy selectivity' is the estimated ka for binding to red blood cells divided by average inhibitory ED$50$ versus each of the chemokines (except for peptide 2; see footnote d below). [c]'Average ED$50$' is the average inhibitory ED$50$ for inhibition of THP-1 migration induced by each of the chemokines (except for peptide 2; see footnote e below). [d]For the peptide 2 family, the 'average ED$50$' is the estimated ka for binding to THP-1 cells. [e]For the peptide 2 family, the 'Duffy selectivity' is calculated as the ka for binding to red blood cells divided by the ka for binding THP1-1 cells. [f]For tripeptide derivatives so marked, the peptide is highly specific for one of the four exemplary chemokines.

Assay [4] concerns the target T3, Duffy Antigen Receptor for Chemokines (DARC) (human, UniProt Q16570 1-336).
T3 chain: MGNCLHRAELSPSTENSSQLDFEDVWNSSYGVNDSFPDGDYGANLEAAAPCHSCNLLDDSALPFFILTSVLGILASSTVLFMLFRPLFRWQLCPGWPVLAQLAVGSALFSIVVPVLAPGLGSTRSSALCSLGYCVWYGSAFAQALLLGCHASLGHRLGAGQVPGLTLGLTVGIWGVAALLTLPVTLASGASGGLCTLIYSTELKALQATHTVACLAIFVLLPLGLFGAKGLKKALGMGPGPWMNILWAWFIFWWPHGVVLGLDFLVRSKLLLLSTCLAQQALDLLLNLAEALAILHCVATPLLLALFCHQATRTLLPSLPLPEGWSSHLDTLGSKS
The assay can be described thus: DARC binding.

For assay [5], the target named is T2, Duffy Antigen Receptor for Chemokines …. In words: ka for binding to red blood cells divided by ka for binding to THP-1 cells.
Assay [6] concerns the target chemokine receptors on THP-1 cells. The assay can be described thus: estimated ka for binding to THP-1 cells, printed under 'AVERAGE ED50 (µM)'.
Assay [7] has the same target. The assay can be described thus: biotinylated peptide binding to the surface of THP-1 cells; printed as 'ka' in µM.
For assay [8], the target named is TGF-beta receptor of THP-1 cells. The assay can be described thus: biotinylated peptide binding to THP-1 cells.
For assay [9], the target named is chemokine receptors on THP-1 cells. The assay can be described thus: binding to chemokine receptors on THP-1 cells; given as 'association constant'.
Assay [10] addresses T1, Duffy Antigen Receptor for Chemokines (DARC) (human). The assay can be described thus: DARC binding on red blood cells; given as 'association constant'.
In assay [11] the target is chemokine receptors on THP-1 cells. In words: cell-based or functional assay. This is another data set of the same source.

The values that follow come from US7067117 (CAMBRIDGE UNIVERSITY TECHNICAL SERVICES, dated 2006).

Where two headings read alike, the source gives them in different places. Bridge positions count the residues as written; N and C are the ends. Square brackets hold non-standard residues; d marks the D form. Ends that are not written are not given here. * marks the point of attachment. Biotin = O=C1N[C@H]2[C@H](CS[C@H]2CCCCC(=O)*)N1

By Kd is commonly meant a measure of binding affinity in units of concentration. For orientation: EC50 means the midpoint of the concentration-response curve.

Turning to EICADP [peptide 3(1-6)[MCP-1]], in assay [1], the ED50 for inhibition of THP-1 migration versus IL8 is 17 µM, the ED50 for inhibition of THP-1 migration versus MCP1 was 33 µM, the ED50 for inhibition of THP-1 migration versus MIP1α is 25 µM and the ED50 for inhibition of THP-1 migration versus SDF1α amounted to 19 µM. In [1], the average ED50 for inhibition of THP-1 migration induced by each of the chemokines is 24 µM. In assay [2], the Duffy selectivity is 5.32.

For EICADPSEEWVQ (not fully specified, also called Ser7Glu8Glu9pep3) [Ser7Glu8Glu9peptide 3(1-12)[MCP-1]], in assay [1], the ED50 for inhibition of THP-1 migration versus IL8 was 9 µM, the ED50 for inhibition of THP-1 migration versus MCP1 came out at 7 µM, the ED50 for inhibition of THP-1 migration versus MIP1α came out at 2 µM and the ED50 for inhibition of THP-1 migration versus SDF1α was 5 µM. For the same molecule, in assay [1], the average ED50 for inhibition of THP-1 migration induced by each of the chemokines is 6 µM. In addition, the Duffy selectivity in [3] is 0.59 ratio.

As to SYRRI, in assay [4], the Kd was above 100 µM.

In the case of KEN, in assay [1], the % inhibition of migration induced by IL-8 at 100 µM tripeptide was 70% and the % inhibition of migration induced by MCP-1 at 100 µM tripeptide was 21%.

In assay [4], CSKPGV had a dissociation constant (Kd) above 100 µM.

In assay [1], EICLDPKQKWVQ [Leu4peptide 3(1-12)[MCP-1]] displayed an ED50 for inhibition of THP-1 migration versus IL8 of 3 µM, an ED50 for inhibition of THP-1 migration versus MCP1 of 8 µM, an ED50 for inhibition of THP-1 migration versus MIP1α of 7 µM and an ED50 for inhibition of THP-1 migration versus SDF1α of 3 µM. This molecule also registered an average ED50 for inhibition of THP-1 migration induced by each of the chemokines in assay [1] of 5 µM.

B1: peptide 2(1-15)[SDF1] (peptide)
peptide: HLKILNTPNCALQIV
notes: also called Pep2[SDF1]; Pep2(1-15)[SDF1]
For the molecule B1, the Duffy selectivity in assay [5] is below 1 ratio. Further, the equilibrium dissociation constant (Kd) was 1 to 10 µM in [6] and 19 µM in assay [4].

For [dC][dQ][dV][dW][dK][dQ][dK][dP][dD][dA][dC] (disulfide 1-11 (inferred); not fully specified; printed as -CQVWKQKPDAC--) [CRD-Cys13pep3[3-12]], the average ED50 for inhibition of THP-1 migration induced by each of the chemokines in assay [1] worked out at 0.8 µM. In addition, the Duffy selectivity in assay [2] is 8.82.

Biotin-EICADPKQKWVQ [N-terminally biotinylated derivative of peptide 3(1-12)[MCP-1]] displayed a Kd in assay [7] of 10 µM.

Turning to DYFETSSQC, in assay [4], the Kd was above 100 µM.

B2: Ser7peptide 3(1-12)[MCP-1] (peptide)
peptide: EICADPSQKWVQ
notes: Mutant of peptide 3; also called Ser7pep3
In assay [1], B2 registered an ED50 for inhibition of THP-1 migration versus IL8 of 3 µM, an ED50 for inhibition of THP-1 migration versus MCP1 of 7 µM, an ED50 for inhibition of THP-1 migration versus MIP1α of 6 µM and an ED50 for inhibition of THP-1 migration versus SDF1α of 4 µM. Further, in assay [1], the average ED50 for inhibition of THP-1 migration induced by each of the chemokines turned out to be 5 µM. The Duffy selectivity in assay [3] was 2 ratio.

With SYRRITSK, in assay [4], binding was put at a Kd of 22 µM.

In assay [4], VGPKSCQSSTEFYD yielded a Kd above 100 µM.

SES yielded a % inhibition of migration induced by RANTES at 100 µM tripeptide in [1] of 87%.

B3: Leu4Ile11peptide 3(1-12)[MCP-1] (peptide)
peptide: EICLDPKQKWIQ
notes: also called Leu4Ile11pep3; Leu4Ile11peptide 3[MCP-1]
In assay [1], B3 registered an ED50 for inhibition of THP-1 migration versus IL8 of 3 µM, an ED50 for inhibition of THP-1 migration versus MCP1 of 2 µM, an ED50 for inhibition of THP-1 migration versus MIP1α of 1 µM and an ED50 for inhibition of THP-1 migration versus SDF1α of 3 µM. In assay [1], this molecule returned an average ED50 for inhibition of THP-1 migration induced by each of the chemokines of 2 µM and an inhibition of MCP-1 induced migration of 1 µM. In addition, the Duffy selectivity in assay [3] is 37.8 ratio.

As for HEPKGYHANFC (also: biotinylated (position not given here)) [Biotinylated T2], the EC50 in [8] stood at 30 µM.

As to KQKWVQ (also called Pep3[7-12]; KQKWVQ) [peptide 3(7-12)[MCP-1]], in assay [1], the ED50 for inhibition of THP-1 migration versus IL8 stood at 6 µM, the ED50 for inhibition of THP-1 migration versus MCP1 came to 7 µM, the ED50 for inhibition of THP-1 migration versus MIP1α was 5 µM and the ED50 for inhibition of THP-1 migration versus SDF1α worked out at 6 µM. The average ED50 for inhibition of THP-1 migration induced by each of the chemokines in assay [1] was determined as 6 µM. In addition, the Duffy selectivity in assay [3] was 2.94 ratio.

In assay [1], EICADPKQKWIQ [Ile11peptide 3(1-12)[MCP-1]] returned an ED50 for inhibition of THP-1 migration versus IL8 of 2 µM, an ED50 for inhibition of THP-1 migration versus MCP1 of 6 µM, an ED50 for inhibition of THP-1 migration versus MIP1α of 4 µM and an ED50 for inhibition of THP-1 migration versus SDF1α of 7 µM. This molecule also returned an average ED50 for inhibition of THP-1 migration induced by each of the chemokines in [1] of 5 µM.

Molecule TSSKC came in with a Kd in assay [4] above 100 µM.

The molecule ELRVIESGPHCANTEI (also called Pep2[IL8]) [Pep2(1-16)[IL8]] had a Duffy selectivity in assay [5] below 1 ratio. Moreover, the Kd in assay [6] was 1 to 10 µM.

In assay [1], SEE registered a % inhibition of migration induced by MIP1α at 100 µM tripeptide of 65%, an ED50 for inhibition of THP-1 migration induced by the one chemokine it is specific for (MIP1α) of 0.8 µM and an ED50 for inhibition of THP-1 migration versus MIP1α of 6 µM.

B4: peptide 3(3-12)[MCP-1] (peptide)
peptide: CADPKQKWVQ
notes: also called Pep3[3-12]; Pep3(3-12)[MCP-1]
In assay [1], B4 had an ED50 for inhibition of THP-1 migration versus IL8 of 9 µM, an ED50 for inhibition of THP-1 migration versus MCP1 of 8 µM, an ED50 for inhibition of THP-1 migration versus MIP1α of 7 µM and an ED50 for inhibition of THP-1 migration versus SDF1α of 9 µM. Also, in [1], the average ED50 for inhibition of THP-1 migration induced by each of the chemokines came out at 8 µM. In addition, the Duffy selectivity in assay [3] was 1.21 ratio.

The molecule CPKEAV had an equilibrium dissociation constant (Kd) in [4] above 100 µM.

B5: peptide 2(1-14)[MIP1α] (peptide)
peptide: DYFETSSQCSKPGV
notes: also called Pep2[MIP1α]; Pep2(1-14)[MIP1α]
Consider B5, for which, in [5], the Duffy selectivity is above 100 ratio. Also, the Kd in assay [6] was 1 to 10 µM; in assay [9], 0.1 to 0.9 µM; in assay [4], above 100 µM.

In assay [1], WIQ yielded an average ED50 for inhibition of THP-1 migration induced by each of the chemokines of 2 µM.

Turning to [dC][dQ][dI][dW][dK][dQ][dK][dP][dD][dL][dC] (disulfide 1-11) [CRD-Cys13Leu4Ile11peptide 3(3-12)[MCP-1]], the dissociation constant Kd in assay [10] worked out at 90 µM. In [11], this molecule came in with an ED50 for inhibition of MCP-1 induced THP-1 migration of 0.001 µM and an average ED50 for inhibition of THP-1 migration induced by each of the chemokines of 0.1 µM. In assay [9], this molecule showed a Kd of 0.1 to 0.5 µM. The Duffy selectivity in assay [2] is above 100.
